Experimental findings from patent US20110158985A1 (published 2011) are described below.

Residue numbers refer to the chain shown, from its start. Values joined by “and” are separate entries in the source; they are usually repeats but may differ in a detail not shown here. Equal entries are not always repeated. Bounds are passed on as bounds.

The labels stand for the following.
B1: A12a6 Fab (Fab, V domains shown)
VH: QVTLRESGPALVKPTQTLTLTCTFSGFSLSTAGMSVGWIRQPPGKALEWLADIWWDGKKDYNPSLKDRLTISKDTSKNQVVLKVTNMDPADTATYYCARDMIFNFYFDVWGQGTTVTVSS
VL: DIQMTQSPSTLSASVGDRVTITCSASSRVGYMHWYQQKPGKAPKLLIYDTFKLSSGVPSRFSGSGSGTEFTLTISSLQPDDFATYYCFQGSGYPFTFGGGTKVEIK
B2: A1e9 Fab (Fab, V domains shown)
VH: B1 VH with D60H, F105W
VL: B1 VL with A25L
notes: also called Ale9
B3: P11d4 Fab (Fab, V domains shown)
VH: B1 VH with A32P, D60H, F105W
VL: B1 VL with A25P, F51M, K52R, S54A
B4: P12f2 Fab (Fab, V domains shown)
VH: B1 VH with A32P, G57D, D60H
VL: B1 VL with A25L, K52Y
B5: A13c4 Fab (Fab, V domains shown)
VH: B1 VH with D60S
VL: B1 VL with A25L, F51M, K52Y, L53Q
B6: A13a11 Fab (Fab, V domains shown)
VH: B1 VH with G57D, D60H, F105W
VL: B1 VL with A25P, F51Y, K52R, L53H
B7: A13c4 IgG (antibody, V domains shown)
VH: B1 VH with D60S
VL: DIQMTQSPSTLSASVGDRVTITCSLSSRVGYMHWYQQKPGKAPKLLIYDTMYQSSGVPSRFSGSGSGTEFTLTISSLQPDDFATYYCFQGSGYPFTFGGGTKVEIKR
B8: A17d4(1) IgG (antibody, V domains shown)
VH: B1 VH with D60S
VL: B7 VL with S24L, L25P
B9: AFFF(1) IgG (antibody, V domains shown)
VH: B1 VH with G57D, D67S, D100S, F103T
VL: B7 VL with L25A, R28S, M51F, Y52K, Q53L, S54A, G92F
B10: AFFY IgG (antibody, name in Kabat numbering, V domains shown)
VH: B1 VH with G57D, D67S, D100S, F103T
VL: B1 VL with R28S, S54A, G92Y
B11: AFSF IgG (antibody, name in Kabat numbering, V domains shown)
VH: B1 VH with G57D, D67S, D100S, F103T
VL: B1 VL with R28S, F51S, S54A, G92F
B12: AFFG IgG (antibody, name in Kabat numbering, V domains shown)
VH: B1 VH with G57D, D67S, D100S, F103T
VL: B1 VL with R28S, S54A

The first assay concerns the target T1, F protein of RSV (Long strain) (RSV (Long strain), UniProt P12568 26-574). Nature of the assay: cell-based or functional assay.
As to B1, the concentration for half-maximal inhibition (IC50) is 0.62 nM.
On the same count and under the same terms, under B2 stands 2.5 nM; under B3, greater than 20 nM; under B4, 0.65 nM.
Consider B5, for which the “IC50” value is 0.52 nM.
Still for that read-out and setting: for B6 the value was 2.04 nM.

In another assay the target is T1, F protein of RSV (Long strain). Nature of the assay: cell-based or functional assay. This is another data set of the same source.
In the case of B7, the “Mean IC50 (Control)” value was 0.0375 µg/mL and the “Mean IC50 (Curve)” value was found to be 0.0376 µg/mL.
The like results for B1 were, in that order, 0.031 µg/mL and 0.0287 µg/mL.
On the same counts, the results for B2 are 0.125 µg/mL and 0.157 µg/mL.
On the same counts, the results for B3 are greater than 1 µg/mL and greater than 1 µg/mL.
As to B4, the “Mean IC50 (Control)” value was found to be 0.0326 µg/mL and the “Mean IC50 (Curve)” value was found to be 0.0407 µg/mL.
The like results for B8 were, in that order, 0.0354 µg/mL and 0.0342 µg/mL.
On the same counts, the results for B5 are 0.0258 µg/mL and 0.0264 µg/mL.
The like results for B6 were, in that order, 0.102 µg/mL and 0.12 µg/mL.

The target is the same in a further assay. Nature of the assay: cell-based or functional assay. This is another data set of the same source.
As to B9, the “Microneutralization IC50, IgG” value is 0.306 µg/ml and 2.04 nM.
Still for that read-out and setting: under B10 stands 0.407 µg/ml and 2.71 nM; under B11, 0.521 µg/ml and 3.47 nM; under B12, 0.453 µg/ml and 3.02 nM.

The next assay shares this target. Nature of the assay: cell-based or functional assay. This is another data set of the same source.
For B7, the “Microneutralization IC50, IgG” value is 0.0376 µg/ml and 0.25 nM.
On to B1, for which the “Microneutralization IC50, Fab” value is 0.0287 µg/ml and 0.57 nM.
Still for that read-out and setting: for B2 the value was 0.157 µg/ml and 3.14 nM; for B4, 0.0407 µg/ml and 0.81 nM.
For the molecule B9, the “Microneutralization IC50, IgG” value was 2.04 nM and 0.306 µg/ml.
Same read-out and setting: under B8 stands 0.0342 µg/ml and 0.23 nM.
For the molecule B5, the “Microneutralization IC50, Fab” value was 0.0264 µg/ml and 0.53 nM.
Turning to B6, the “Microneutralization IC50, Fab” value was 0.012 µg/ml and 2.4 nM.

The target in another assay is T2, RSV F glycoprotein (NUF4) (respiratory syncytial virus).
T2 chain 1: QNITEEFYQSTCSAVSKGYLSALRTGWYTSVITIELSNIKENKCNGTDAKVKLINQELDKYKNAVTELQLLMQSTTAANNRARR
T2 chain 2: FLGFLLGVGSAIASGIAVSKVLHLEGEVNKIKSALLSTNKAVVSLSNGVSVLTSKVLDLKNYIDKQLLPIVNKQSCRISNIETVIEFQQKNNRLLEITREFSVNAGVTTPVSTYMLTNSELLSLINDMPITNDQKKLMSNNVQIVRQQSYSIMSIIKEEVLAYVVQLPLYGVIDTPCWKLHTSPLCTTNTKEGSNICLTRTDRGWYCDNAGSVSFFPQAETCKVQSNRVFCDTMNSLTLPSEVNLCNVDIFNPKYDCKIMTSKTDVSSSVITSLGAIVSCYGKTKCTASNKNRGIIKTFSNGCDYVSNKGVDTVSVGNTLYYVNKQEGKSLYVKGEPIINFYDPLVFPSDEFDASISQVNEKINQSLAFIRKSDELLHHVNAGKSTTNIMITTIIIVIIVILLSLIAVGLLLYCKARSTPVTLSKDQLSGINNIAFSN
Kind of assay: SPR (BIAcore), mAb vs NUF4 (1:1). A general note: In SPR one partner is held on a chip, and binding of the other changes the refractive index at the surface.
For the molecule B7, binding was put at a Kd of 0.75 nM, the “fold in parentheses (palivizumab = 1)” value is 12 fold, the koff came out at 0.000272 s⁻¹ and the on-rate (kon) amounted to 365000 M⁻¹ s⁻¹.
For B8, binding was put at a Kd of 0.73 nM, the “fold in parentheses (palivizumab = 1)” value was determined as 12 fold, the dissociation rate constant (koff) was 0.000362 s⁻¹ and the association rate constant (kon) is 499000 M⁻¹ s⁻¹.

In another assay the target is T2, RSV F glycoprotein (NUF4). Nature of the assay: SPR (BIAcore), mAb vs NUF4 (2:1).
B7: the affinity, expressed as Kd, was 0.7 nM; the “fold in parentheses (palivizumab = 1)” value worked out at 446 fold; the koff came out at 0.000225 s⁻¹; the kon was 320000 M⁻¹ s⁻¹.
Take B8: the Kd came out at 1.11 nM, the “fold in parentheses (palivizumab = 1)” value came out at 281 fold, the off-rate constant (koff) is 0.000292 s⁻¹ and the on-rate constant (kon) turned out to be 264000 M⁻¹ s⁻¹.

Another assay concerns the target Bac-F (respiratory syncytial virus). Nature of the assay: SPR (BIAcore), mAb vs Bac-F (1:1).
Turning to B7, the equilibrium dissociation constant (Kd) came to 0.13 nM and the “fold in parentheses (palivizumab = 1)” value is 30 fold.
The like results for B8 were, in that order, 0.09 nM and 43 fold.

The target of another assay is RSV F protein (purified) (respiratory syncytial virus). Kind of assay: SPR (BIAcore), F protein immobilised.
In turn, B1 registered a koff of 0.00023 s⁻¹ and a kon of 743000 M⁻¹ s⁻¹.
B2: the off-rate constant (koff) turned out to be 0.000453 s⁻¹ and the kon was 790000 M⁻¹ s⁻¹.
In the case of B3, the off-rate constant (koff) is 0.000717 s⁻¹; the kon was 570000 M⁻¹ s⁻¹ and 572000 M⁻¹ s⁻¹.
For the molecule B4, the off-rate (koff) amounted to 0.000282 s⁻¹ and the on-rate (kon) was determined as 663000 M⁻¹ s⁻¹.
Regarding B9, the koff was 0.000274 s⁻¹ and 0.000266 s⁻¹ and 0.000206 s⁻¹; the on-rate (kon) is 108000 M⁻¹ s⁻¹ and 96000 M⁻¹ s⁻¹ and 124000 M⁻¹ s⁻¹.
As for B5, the koff came out at 0.00028 s⁻¹; the kon is 781000 M⁻¹ s⁻¹ and 735000 M⁻¹ s⁻¹.
For the molecule B6, the koff amounted to 0.00025 s⁻¹ and the kon is 735000 M⁻¹ s⁻¹.

The next assay deals with T3, recombinant C-terminally truncated RSV (A2 strain) F protein (RSV (A2 strain), UniProt P03420 26-524).
T3 construct: extracellular domain; also called truncated F protein; extracellular domain of the F protein from RSV A2
Nature of the assay: SPR (BIAcore), IgG over immobilised F.
Consider B9, for which the koff was no more than 5e-06 s⁻¹ and the association rate constant (kon) came to 127000 M⁻¹ s⁻¹.
Consider B10, for which the dissociation rate constant (koff) is no more than 5e-06 s⁻¹ and the kon amounted to 144000 M⁻¹ s⁻¹.
For the molecule B11, the koff was no more than 5e-06 s⁻¹ and the kon stood at 147000 M⁻¹ s⁻¹.
Take B12: the off-rate constant (koff) was no more than 5e-06 s⁻¹ and the association rate constant (kon) was 147000 M⁻¹ s⁻¹.

For a further assay, the target named is T3, recombinant C-terminally truncated RSV …. Kind of assay: SPR (BIAcore), Fab over immobilised F.
With B1, the Kd is 0.422 nM, the koff worked out at 0.000219 s⁻¹ and the association rate constant (kon) came to 519000 M⁻¹ s⁻¹.
The like results for B2 were, in that order, 0.216 nM, 0.000113 s⁻¹ and 523000 M⁻¹ s⁻¹.
On the same counts, the results for B3 are 0.682 nM, 0.000389 s⁻¹ and 570000 M⁻¹ s⁻¹.
For the molecule B4, the Kd stood at 0.135 nM, the off-rate (koff) turned out to be 7.2e-05 s⁻¹ and the association rate constant (kon) stood at 535000 M⁻¹ s⁻¹.
On the same counts, the results for B5 are 0.172 nM, 0.000112 s⁻¹ and 650000 M⁻¹ s⁻¹.
The like results for B6 were, in that order, 0.337 nM, 0.000229 s⁻¹ and 680000 M⁻¹ s⁻¹.

The target is the same in another assay. Nature of the assay: SPR (BIAcore), IgG over immobilised F. This is another data set of the same source.
As for B7, the dissociation constant Kd is 0.132 nM, the off-rate (koff) worked out at 3.96e-05 s⁻¹ and the kon was determined as 300000 M⁻¹ s⁻¹.
Turning to B9, the Kd is no more than 0.039 nM, the off-rate constant (koff) is no more than 5e-06 s⁻¹ and the kon is 127000 M⁻¹ s⁻¹.
Regarding B8, the equilibrium dissociation constant (Kd) was determined as 0.089 nM, the koff turned out to be 4.07e-05 s⁻¹ and the on-rate constant (kon) turned out to be 456000 M⁻¹ s⁻¹.

Another assay addresses T2, RSV F glycoprotein (NUF4). Kind of assay: ITC, NUF4 titrated into antibody, 35 C.
Procedure: The binding thermodynamics of the antibodies were determined from ITC measurements using a Microcal, Inc. VP Titration Calorimeter. The VP titration calorimeter consists of a matched pair of sample and reference vessels (1.409 ml) enclosed in an adiabatic enclosure and a rotating stirrer-syringe for titrating ligand solutions into the sample vessel. The ITC measurements were performed at 25° C. and 35° C. The sample vessel contained the antibody in the phosphate buffer while the reference vessel contained just the buffer solution. The phosphate buffer solution was saline 67 mM PO₄ at pH 7.4 from HyClone, Inc. Five or ten μl aliquots of the 0.05 to 0.1 mM NUF4 solution were titrated 3 to 4 minutes apart into the antibody sample solution until the binding was saturated as evident by the lack of a heat exchange signal. […] This was attributed to a heat of dilution of the NUF4 titrant and was subtracted from the titrant heats obtained during the titration prior to analysis of the data.
A non-linear, least square minimization software program from Microcal, Inc., Origin 5.0, was used to fit the incremental heat of the ith titration (ΔQ (i)) of the total heat, Qₜ, to the total titrant concentration, Xₜ, according to the following equations (I),
As to B7, the Ka was 1.07e+08 M⁻¹; the affinity, expressed as Kd, was 9 nM; the ΔHb was 16 kcal/mol.
On the same counts, the results for B8 are 7.5e+07 M⁻¹, 13 nM and 16.3 kcal/mol.

Usually IC50 stands for the concentration that gives 50% inhibition. A higher IC50 goes with lower potency. One may read the Kd as the equilibrium constant for the complex coming apart. A word on the koff: it is a measure of how fast the partners let go of each other. One may read the kon as the second-order rate constant of association.
